# Measurements reported in publication PMC12204359, “Mechanistic Design of Cell-Penetrating Disruptors for a Phospho-Dependent Interaction” (Research Square, 2025).
# Positions of bridges follow the written chain, without caps; N, C: chain ends. Non-standard residues stand in square brackets, D forms with d. Primed or numbered codes have the meaning given here. No end group written: not given here. FAM″ = 5(6)-carboxyfluorescein label; pS = N[C@@H](COP(=O)(O)O)C(=O)O; FAM = 5(6)-carboxyfluorescein; S5 = C=CCCC[C@](C)(N)C(=O)O
# T1: biotinylated Avi-tagged ankle region of clathrin (aa 358–574) (human, UniProt Q00610 358-574, biotin)
# T1 construct: held on a streptavidin chip (SPR) or detected with an anti-biotin antibody (peptide arrays)
# T1 sequence (looked up): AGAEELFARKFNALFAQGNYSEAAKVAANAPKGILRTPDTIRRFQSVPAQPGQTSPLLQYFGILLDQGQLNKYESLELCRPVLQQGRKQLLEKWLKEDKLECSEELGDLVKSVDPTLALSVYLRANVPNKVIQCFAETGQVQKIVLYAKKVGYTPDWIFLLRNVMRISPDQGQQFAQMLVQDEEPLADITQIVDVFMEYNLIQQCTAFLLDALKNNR
# T2: clathrin heavy chain minimal ankle region (CHC^ankle, aa 358–574) (human, UniProt Q00610 358-574)
# T2 construct: modified pGEX vector with a TEV-cleavable GST tag; also called CHC ankle region protein; WT CHC
# T2 sequence (looked up): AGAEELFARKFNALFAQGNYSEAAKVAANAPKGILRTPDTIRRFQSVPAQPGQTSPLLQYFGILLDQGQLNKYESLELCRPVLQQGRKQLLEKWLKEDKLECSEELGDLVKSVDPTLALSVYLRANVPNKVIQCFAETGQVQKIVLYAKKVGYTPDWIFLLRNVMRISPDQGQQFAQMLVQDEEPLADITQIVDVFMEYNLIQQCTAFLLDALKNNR
# Tests used:
# Settings in all cases: both partners purified
# [1] = molecular target: T1, biotinylated Avi-tagged ankle region of …; test: peptide or protein array; peptides synthesised on cellulose membrane; 1 μM biotinylated clathrin 358–574 in 20 mM HEPES pH 7.5, 150 mM NaCl, 5 mM DTT, 0.05% Tween-20, 1 h room temperature; anti-biotin HRP
# [2] = molecular target: T2, clathrin heavy chain minimal ankle …; test: fluorescence polarisation; direct binding, FAM-labelled TACC3 peptides and CHC protein; 20 mM HEPES pH 7.5, 150 mM NaCl, 5 mM DTT, 0.05% Tween-20; triplicate; one-site specific binding model
# [3] = molecular target: T2, clathrin heavy chain minimal ankle …; test: NMR titration; CHC titrated into ~140 μM 15N-labelled GB1-TACC3 or GB1-pTACC3 to a 1:5 CHC:TACC3 molar ratio; loss of 1H–15N HSQC peak intensity
binding result [1],Kd [2] [µM],Binder,also measured
binds,–,"KESALRKQDLLLQFDPLLR (peptide, UniProt Q9Y6A5 550-568, looked up, also: 8-amino-3,6-dioxaoctanoic acid spacer to cellulose membrane, end not given here, human TACC3 aa 550-568 with S558D, Y560L, K562Q; source: synthesised on cellulose membrane (MultiPep 2)) [array peptide TACC3 550–568 S558D Y560L K562Q]",–
binds,–,"KESALRKQDLILLFDPLLR (peptide, UniProt Q9Y6A5 550-568, looked up, also: 8-amino-3,6-dioxaoctanoic acid spacer to cellulose membrane, end not given here, human TACC3 aa 550-568 with S558D, Y560I, K562L; source: synthesised on cellulose membrane (MultiPep 2)) [array peptide TACC3 550–568 S558D Y560I K562L]",–
binds,–,"KESALRKQDLLLEFDPLFR (peptide, UniProt Q9Y6A5 550-568, looked up, also: 8-amino-3,6-dioxaoctanoic acid spacer to cellulose membrane, end not given here, human TACC3 aa 550-568 with S558D, Y560L, K562E, L567F; source: synthesised on cellulose membrane (MultiPep 2)) [array peptide TACC3 550–568 S558D Y560L K562E L567F]",–
–,146,"{FAM}-FKESALRKQSLYLAFDPLLRDS (peptide, UniProt Q9Y6A5 549-570, looked up, human TACC3 CID, aa 549-570, K562A, no phosphate; also called K562A^TACC3; source: synthetic peptide, bought: PPR, Alta Bioscience or Biomatik Corporation) [FAM-TACC3 CID K562A peptide, unphosphorylated]",–
–,314,"{FAM}-FKESALRKQELYLKFDPLLRDS (peptide, UniProt Q9Y6A5 549-570, looked up, human TACC3 CID, aa 549-570, S558E; also called phosphomimetic glutamic acid variant; S558E TACC3^CID; source: synthetic peptide, bought: PPR, Alta Bioscience or Biomatik Corporation) [FAM-TACC3 CID S558E peptide]",–
–,23,"{FAM}-FKESALRKQ[pS]LYLAFDPLLRDS (peptide, UniProt Q9Y6A5 549-570, looked up, human TACC3 CID, aa 549-570, pS558, K562A; also called K562A^pTACC3; source: synthetic peptide, bought: PPR, Alta Bioscience or Biomatik Corporation) [FAM-pTACC3 CID K562A peptide]",–
–,26,"{FAM}-FKESALAKQ[pS]LYLAFDPLLRDS (peptide, UniProt Q9Y6A5 549-570, looked up, human TACC3 CID, aa 549-570, pS558, R555A and K562A; also called R555A K562A^pTACC3; source: synthetic peptide, bought: PPR, Alta Bioscience or Biomatik Corporation) [FAM-pTACC3 CID R555A K562A peptide]",–
–,52,"{FAM}-FKESALAKQ[pS]LYLKFDPLLRDS (peptide, UniProt Q9Y6A5 549-570, looked up, human TACC3 CID, aa 549-570, pS558, R555A; also called R555A^pTACC3; source: synthetic peptide, bought: PPR, Alta Bioscience or Biomatik Corporation) [FAM-pTACC3 CID R555A peptide]",–
binds,–,"KESALRKQDLLLIFDPLFR (peptide, UniProt Q9Y6A5 550-568, looked up, also: 8-amino-3,6-dioxaoctanoic acid spacer to cellulose membrane, end not given here, human TACC3 aa 550-568 with S558D, Y560L, K562I, L567F; source: synthesised on cellulose membrane (MultiPep 2)) [array peptide TACC3 550–568 S558D Y560L K562I L567F]",–
binds,–,"KESALRKQDLWLLFDPLFR (peptide, UniProt Q9Y6A5 550-568, looked up, also: 8-amino-3,6-dioxaoctanoic acid spacer to cellulose membrane, end not given here, human TACC3 aa 550-568 with S558D, Y560W, K562L, L567F; source: synthesised on cellulose membrane (MultiPep 2)) [array peptide TACC3 550–568 S558D Y560W K562L L567F]",–
–,–,"GTSSFKESALRKQ[pS]LYLKFDPLLRDSPGR (domain or fragment, human, UniProt Q9Y6A5 545-573, looked up, also: 15N/13C labelled, human TACC3 aa 545-573 (the results say aa 546-573), pS558, fused to the small protein GB1; also called phosphorylated GB1-TACC3 CID; source: E. coli BL21 (DE3) RIL, purified; phosphorylated in situ with Aurora-A (122–403) and TPX2 (1–43); not shown: His-NusA, N-terminal, cleaved) [GB1-pTACC3]",binding result [3]: binds
binds,–,"KESALRKQDLWLLFDPLLR (peptide, UniProt Q9Y6A5 550-568, looked up, also: 8-amino-3,6-dioxaoctanoic acid spacer to cellulose membrane, end not given here, human TACC3 aa 550-568 with S558D, Y560W, K562L; source: synthesised on cellulose membrane (MultiPep 2)) [array peptide TACC3 550–568 S558D Y560W K562L]",–
binds,–,"KESALRKQDLLLQFDPLFR (peptide, UniProt Q9Y6A5 550-568, looked up, also: 8-amino-3,6-dioxaoctanoic acid spacer to cellulose membrane, end not given here, human TACC3 aa 550-568 with S558D, Y560L, K562Q, L567F; source: synthesised on cellulose membrane (MultiPep 2)) [array peptide TACC3 550–568 S558D Y560L K562Q L567F]",–
binds,–,"KESALRKQDLLLIFDPLLR (peptide, UniProt Q9Y6A5 550-568, looked up, also: 8-amino-3,6-dioxaoctanoic acid spacer to cellulose membrane, end not given here, human TACC3 aa 550-568 with S558D, Y560L, K562I; source: synthesised on cellulose membrane (MultiPep 2)) [array peptide TACC3 550–568 S558D Y560L K562I]",–
binds,–,"KESALRKQDLILLFDPLFR (peptide, UniProt Q9Y6A5 550-568, looked up, also: 8-amino-3,6-dioxaoctanoic acid spacer to cellulose membrane, end not given here, human TACC3 aa 550-568 with S558D, Y560I, K562L, L567F; source: synthesised on cellulose membrane (MultiPep 2)) [array peptide TACC3 550–568 S558D Y560I K562L L567F]",–
–,~750,{FAM″}-KESALRK[S5]ELL[S5]EADPAFRDS-NH2 (staple 8-12) [negative control SP TACC3 (F563A & L566A)],–
binds,–,"KESALRKQDLLLLFDPLLR (peptide, UniProt Q9Y6A5 550-568, looked up, also: 8-amino-3,6-dioxaoctanoic acid spacer to cellulose membrane, end not given here, human TACC3 aa 550-568 with S558D, Y560L, K562L; source: synthesised on cellulose membrane (MultiPep 2)) [array peptide TACC3 550–568 S558D Y560L K562L]",–
binds,–,"KESALRKQDLLLLFDPLFR (peptide, UniProt Q9Y6A5 550-568, looked up, also: 8-amino-3,6-dioxaoctanoic acid spacer to cellulose membrane, end not given here, human TACC3 aa 550-568 with S558D, Y560L, K562L, L567F; source: synthesised on cellulose membrane (MultiPep 2)) [array peptide TACC3 550–568 S558D Y560L K562L L567F]",–
binds,–,"KESALRKQDLLLEFDPLLR (peptide, UniProt Q9Y6A5 550-568, looked up, also: 8-amino-3,6-dioxaoctanoic acid spacer to cellulose membrane, end not given here, human TACC3 aa 550-568 with S558D, Y560L, K562E; source: synthesised on cellulose membrane (MultiPep 2)) [array peptide TACC3 550–568 S558D Y560L K562E]",–
